Molecular target: GST-tag DNA polymerase (pol) β, wild-type (human) (UniProt P06746)
Assay: SPR

Kd: 2700 nM
Substance: X-ray cross-complementing protein 1 (XRCC1) V86R, 6x-his tag (from UniProt P18887 1-633) (natural protein)

From article PMC11090158
